Source: US20130089872A1 (LIVTECH, published 2013)

T1: hmTROP-2-C chimeric protein (human; mouse, UniProt Q8BGV3 140-317)
T1 construct: range 140-C-terminus; constitutively expressed on HEK293 cells; signal peptide 1-26 of hTROP-2 left out; also called human/mouse chimeric TROP-2-C; not shown: C-terminal myc/His tag from the vector
T1 sequence: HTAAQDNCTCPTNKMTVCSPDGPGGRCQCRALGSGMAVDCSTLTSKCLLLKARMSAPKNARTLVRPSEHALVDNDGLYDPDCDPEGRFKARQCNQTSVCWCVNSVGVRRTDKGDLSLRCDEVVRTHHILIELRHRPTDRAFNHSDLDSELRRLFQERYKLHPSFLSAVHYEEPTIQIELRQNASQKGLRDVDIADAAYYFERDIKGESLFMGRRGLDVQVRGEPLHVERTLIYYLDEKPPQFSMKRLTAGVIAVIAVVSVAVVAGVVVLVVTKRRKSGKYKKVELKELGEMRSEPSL

T2: mouse TROP-2 protein (mouse, UniProt Q8BGV3 25-317)
T2 construct: whole, on cells
T2 sequence (looked up): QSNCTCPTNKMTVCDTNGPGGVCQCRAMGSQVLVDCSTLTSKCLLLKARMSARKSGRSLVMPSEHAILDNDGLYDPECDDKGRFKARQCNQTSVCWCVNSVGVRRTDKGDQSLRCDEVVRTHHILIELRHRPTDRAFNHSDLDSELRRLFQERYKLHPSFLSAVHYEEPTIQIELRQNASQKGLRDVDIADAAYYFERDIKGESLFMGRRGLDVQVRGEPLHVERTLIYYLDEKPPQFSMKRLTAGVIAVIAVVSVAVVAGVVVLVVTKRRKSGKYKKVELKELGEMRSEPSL

T3: human TROP-1/EpCAM protein (human, UniProt P16422 24-314)
T3 construct: whole, on cells; vector adds a C-terminal myc/His tag; also called human EpCAM/TROP-1; hEpCAM
T3 sequence (looked up): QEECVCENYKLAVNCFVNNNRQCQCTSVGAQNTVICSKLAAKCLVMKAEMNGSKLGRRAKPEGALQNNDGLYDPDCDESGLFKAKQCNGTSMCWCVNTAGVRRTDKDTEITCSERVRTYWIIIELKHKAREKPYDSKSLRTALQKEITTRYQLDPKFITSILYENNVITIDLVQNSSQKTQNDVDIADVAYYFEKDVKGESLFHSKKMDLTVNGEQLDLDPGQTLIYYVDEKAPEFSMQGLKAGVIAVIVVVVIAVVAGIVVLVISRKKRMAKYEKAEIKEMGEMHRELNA

T4: recombinant protein of the extracellular region of hTROP-2 (human, UniProt P09758 27-263)
T4 construct: made with baculovirus, purified on Ni Sepharose; also called purified recombinant hTROP-2 protein; hTROP-2 EC; not shown: C-terminal myc/His tag from the pcDNA4/myc-His A vector
T4 sequence: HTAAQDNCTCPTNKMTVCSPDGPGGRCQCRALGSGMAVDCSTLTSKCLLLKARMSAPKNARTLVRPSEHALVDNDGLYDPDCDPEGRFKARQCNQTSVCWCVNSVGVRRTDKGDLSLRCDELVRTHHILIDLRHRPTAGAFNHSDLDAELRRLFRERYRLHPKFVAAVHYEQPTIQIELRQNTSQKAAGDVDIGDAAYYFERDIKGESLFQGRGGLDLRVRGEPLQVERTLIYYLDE

T5: Table 9 peptide No. 26
T5 construct: CLIPS format (inferred); native Cys replaced by Ala as printed
T5 peptide: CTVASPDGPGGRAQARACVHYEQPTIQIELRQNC

T6: hmTROP-2-A chimeric protein (human; mouse, UniProt Q8BGV3 64-317)
T6 construct: range 64-C-terminus; transiently expressed on HEK293 cells; also called human/mouse TROP-2-A; not shown: C-terminal myc/His tag from the vector
T6 sequence: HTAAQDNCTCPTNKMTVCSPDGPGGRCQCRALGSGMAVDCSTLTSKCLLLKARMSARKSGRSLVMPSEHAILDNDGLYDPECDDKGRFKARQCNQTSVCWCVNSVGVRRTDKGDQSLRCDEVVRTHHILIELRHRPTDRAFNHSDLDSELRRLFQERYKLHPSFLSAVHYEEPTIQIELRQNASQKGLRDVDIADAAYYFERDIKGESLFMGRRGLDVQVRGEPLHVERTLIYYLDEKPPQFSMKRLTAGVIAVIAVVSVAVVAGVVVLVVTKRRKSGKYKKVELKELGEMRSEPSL

T7: human TROP-2 (hTROP-2) protein (human, UniProt P09758 27-323)
T7 construct: also called Tacstd2; GA733-1
T7 sequence: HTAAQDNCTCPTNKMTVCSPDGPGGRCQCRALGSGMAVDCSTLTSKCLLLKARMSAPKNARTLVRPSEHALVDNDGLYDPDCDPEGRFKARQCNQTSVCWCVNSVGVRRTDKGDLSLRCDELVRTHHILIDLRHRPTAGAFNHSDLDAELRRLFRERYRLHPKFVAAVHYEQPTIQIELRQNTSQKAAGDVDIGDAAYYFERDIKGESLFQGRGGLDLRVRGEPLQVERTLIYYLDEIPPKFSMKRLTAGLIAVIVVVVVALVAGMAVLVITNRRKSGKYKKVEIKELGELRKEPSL


Tests used:
[1] = target: T1, hmTROP-2-C chimeric protein; assay: FACS on HEK293 cells constantly expressing hmTROP-2-C
[2] = target: T2, mouse TROP-2 protein; assay: FACS on CHO-K1 cells transiently expressing mouse TROP-2
Text: (§1) Specifically, each of an expression vector (mouse TROP-2-pcDNA3.1(+), furnished by the Institute of Molecular and Cellular Biosciences, the University of Tokyo) comprising the full-length cDNA of a mouse TROP-2 gene (GenBank accession No. NM_{—}020047, Y08830), and an expression vector (pcDNA3.1-hEpCAM-myc/His) comprising the full-length cDNA of a human TROP-1/EpCAM gene (GenBank accession No. NM_{—}002354), was transiently introduced into CHO-K1 cells, using Lipofectamine2000 reagent (Invitrogen). Thereafter, 24 to 48 hours later, the cells were removed from a culture dish by treating them with trypsin, and a cell suspension was then prepared. The thus prepared cell suspension was successively reacted with the produced anti-hTROP-2 monoclonal antibody (0.1 μg) and with PE-labeled anti-mouse IgG, and it was then analyzed by FACSCalibur.

[3] = target: T3, human TROP-1/EpCAM protein; assay: FACS on CHO-K1 cells transiently expressing human EpCAM/TROP-1
Text: as §1

[4] = target: T4, recombinant protein of the …; assay: equilibrium competition ELISA (Djavadi-Ohaniance method), recombinant hTROP-2
Description: The antigen binding affinity (Kd value) of the generated anti-hTROP-2 monoclonal antibody was calculated by a method using ELISA (Djavadi-Ohaniance L. et al (1996), In Antibody Engineering, Chapter 4, pp. 77-97. IRL Press, Oxford).
Specifically, the purified recombinant hTROP-2 protein (0.1 μg/mL) was added to a 96-well culture plate (Corning) so that the antigen was solid-phased (at room temperature for 1 hour, or at 4° C. overnight). Subsequently, the resultant was washed with PBS three times, and 2% skim milk (PBS solution) was then added thereto to block it (at room temperature for 1 hour). The resultant was washed with PBS twice. […] The reaction product was washed with PBS three times, and it was then reacted with HRP-labeled anti-mouse IgG (final concentration: 1 μg/mL) (GE Healthcare Biosciences) diluted with a blocking solution (at room temperature for 1 hour). Subsequently, the reaction product was washed with a 0.1% Tween20-PBS solution three times, and a TMB (3,3′,5,5′-tetramethylbenzidine: SIGMA) substrate solution was then added to the resultant to carry out a color reaction. Then, 1 M sulfuric acid was added to the reaction product to terminate the reaction. Using Microplate reader Model 550 (BIO RAD), absorbance was measured.

[5] = target: Table 9 peptide No. 14; assay: PEPSCAN/CLIPS peptide ELISA, antibody 1 ug/mL
[6] = target: T5, Table 9 peptide No. 26; assay: PEPSCAN/CLIPS peptide ELISA, antibody 1 ug/mL
Description: 5034 types of the synthesized peptides were covalently bound to PEPSCAN cards (455 peptides/card), and the binding of the synthesized peptides to antibodies was then analyzed by the ELISA method. […] After washing, the resultant was allowed to react with a 1000-fold diluted peroxidase-secondary antibody complex at 25° C. for 1 hour. After washing, a substrate solution (a solution containing 2,2′-azino-di-3-ethylbenzthiazoline sulfonate (ABTS) and 2 μL of 3% hydrogen peroxide solution) was added to the reaction solution, followed by a chromogenic reaction for 1 hour. The binding activity of the antibodies was quantified by photographing with a CCD camera and then performing an image analysis.

[7] = target: T6, hmTROP-2-A chimeric protein; assay: FACS on HEK293 cells transiently expressing hmTROP-2-A
[8] = target: T7, human TROP-2 (hTROP-2) protein; assay: FACS on PK-59 cells (endogenous hTROP-2), 0.1 ug antibody
Description: (§2) Cancer cells were removed from a culture dish by a trypsin treatment, and a cell suspension was then prepared (cell density: 2×10⁶ cells/mL). An anti-hTROP-2 monoclonal antibody (0.1 μg) was added to 100 μL of the cell suspension, and they were then reacted at 4° C. for 20 minutes. The reaction solution was washed with PBS, and it was then reacted with PE-labeled anti-mouse IgG (BD Biosciences Pharmingen) (0.1 μg) (at 4° C. for 30 minutes). Thereafter, the resultant was analyzed by FACSCalibur (Becton, Dickinson and Company).

[9] = target: T7, human TROP-2 (hTROP-2) protein; assay: FACS on BxPC-3 cells (endogenous hTROP-2), 0.1 ug antibody
Description: as §2

[10] = target: Table 7 peptide No. 16; assay: PEPSCAN/CLIPS peptide ELISA, antibody 1 ug/mL
[11] = target: Table 7 peptide No. 19; assay: PEPSCAN/CLIPS peptide ELISA, antibody 1 ug/mL

Binder	binding result [1]	binding result [2]	binding result [3]	Kd [4] [pM]	binding (PEPSCAN ELISA signal) [5]	binding (PEPSCAN ELISA signal) [6]	binding result [7]	mean fluorescence intensity relative to secondary antibody only [8] [times]	mean fluorescence intensity relative to secondary antibody only [9] [times]	binding (PEPSCAN ELISA signal) [10]	binding (PEPSCAN ELISA signal) [11]
anti-hTROP-2 monoclonal antibody clone T6-16 (antibody, V domains shown, mouse IgG2a purified from hybridoma ascites; also called 16-16; hybridoma FERM BP-11346) VH: EVQLQQSGPELVKPGASVKISCKASGYTFTDYNMHWVKQSHGKNLEWIGYIYPYNGGTGYNQRFKSRATMTVDKSSSTAYMELRSLTSDDSAVYYCAREDYGSSPSYAMDYWGQGTSVIVSS VL: DVVMTQTPLSLPVSLGDQASISCRSSQSLVHGNGNTYLHWYLQKPGQSPKLLIYKVSNRFSGVPDRFSGSGSGTDFTLKISRVEAEDLGVYFCSQTTHVPTFGSGTKLEIK	no binding	no binding (tested: 0.1 ug)	no binding (tested: 0.1 ug)	4.3	–	–	–	–	–	–	–
anti-hTROP-2 monoclonal antibody clone K5-107 (antibody, V domains shown, mouse IgG1 purified from hybridoma ascites; also called hybridoma FERM BP-11252) VH: QVQLQQPGSELVRPGASVKLSCKASGYTFTSYWMHWVKQRHGQGLEWIGNIYPGGGYTNYDEKFKSKGTLTVDTSSSTAYMHLSSLTSEDSAVYYCTRSSVFDYWGQGTTLTVSS VL: DILLTQSPAILSVSPGERVSFSCRASQNIGTSIHWFQQRTNGSPRLLIKYASESISGIPSRFSGSGSGTDFTLSINSVESEDIADYYCQQSNSWPFTFGSGTKLEIK	–	no binding (tested: 0.1 ug)	no binding (tested: 0.1 ug)	–	–	–	–	–	–	–	–

The remaining binders from weak to strong by Kd [4], led by results:

binding result [1]	binding result [2]	binding result [3]	Kd [4] [pM]	binding (PEPSCAN ELISA signal) [5]	binding (PEPSCAN ELISA signal) [6]	binding result [7]	mean fluorescence intensity relative to secondary antibody only [8] [times]	mean fluorescence intensity relative to secondary antibody only [9] [times]	binding (PEPSCAN ELISA signal) [10]	binding (PEPSCAN ELISA signal) [11]	Binder
binds	no binding (tested: 0.1 ug)	no binding (tested: 0.1 ug)	26.9	1440	1220	binds	122	121	–	–	anti-hTROP-2 monoclonal antibody clone K5-116-2-1 (antibody, V domains shown, mouse IgG; also called hybridoma FERM BP-11253) VH: QVQLQQPGAELVRPGASVKLSCKASGYTFTSYWITWVKQRPGQGLEWIGNIYPSDSYTNYNQKFRDKATLTVDKSSSTAYMQLSSPTSEDSAVYYCSALFDYWGQGTTLTVSS VL: DILLTQSPAILSVSPGERVSFSCRASQSIGTSIHWYQQRTNGSPRLLIKYASESISGIPSRFSGSGSGTDFILSINSVESEDIADYYCQQSNSWPFTFGSGTKLEIK
binds	no binding (tested: 0.1 ug)	no binding (tested: 0.1 ug)	6.8	–	–	binds	–	–	538	519	anti-hTROP-2 monoclonal antibody clone K5-70 (antibody, V domains shown, mouse IgG2a purified from hybridoma ascites; also called K-70; hybridoma FERM BP-11251) VH: QVQLQQPGAELVRPGASVKLSCKASGYTFTIYWINWVKQRPGQGLEWIGNIYPSDSYTNYNQKFKDKATLTVDKSSSTAYMQLSSPTSEDSAVYYCTRTSMADYWGQGTTLTVSS VL: DILLTQSPAILSVSPGERVSFSCRASQSIGTSIHWYQQRTNGSPRLLIKYASESISGIPSRFSGSGSGTDFTLSINSVESEDIADYYCQQSNSWPFTFGSGTKLEIK
